Laboratory results: patent publication US20230111363A1
Residue numbers refer to the chain shown, from its start.

B1: anti-human MCT1 antibody Ab1 (antibody, human IgG1, kappa, V domains shown)
VH: QVQLVQSGAEVKKPGASVKVSCTVSGFSLTNYHLQWVRQAPGQGLEWMGFIRSSGNTEYNSEFKSRVTMTRDTSTSTVYMELSSLRSEDTAVYYCARNSWYHGTYYSPGYYVMDAWGQGTLVTVSS
VL: EIVLTQSPGTLSLSPGERATLSCKGSQNINNYLAWYQQKPGQAPRLLIYNRHNLQTGIPDRFSGSGSGTDFTLTISRLEPEDFAVYYCYQYSDGYTFGGGTKVEIKR
B2: anti-human MCT1 antibody Ab13 (antibody, human IgG1, kappa, V domains shown)
VH: B1 VH with F27R, S99R, Y101R
VL: B1 VL with N30E
B3: anti-human MCT1 antibody Ab12 (antibody, human IgG1, kappa, V domains shown)
VH: B1 VH with F27R, Q35V, S99R
VL: B1 VL with N30E
B4: anti-human MCT1 antibody Ab10 (antibody, human IgG1, kappa, V domains shown)
VH: B1 VH with F27R, N31G, S99R
VL: B1 VL with N30E
B5: anti-human MCT1 antibody Ab8 (antibody, human IgG1, kappa, V domains shown)
VH: B1 VH with F27R, E58I, S99R
VL: B1 VL with N30E
B6: anti-human MCT1 antibody Ab7 (antibody, human IgG1, kappa, V domains shown)
VH: B1 VH with F27R, L29R, S99R
VL: B1 VL with N30E
B7: anti-human MCT1 antibody Ab11 (antibody, human IgG1, kappa, V domains shown)
VH: B1 VH with F27R, S99R, Y101H
VL: B1 VL with N30E
B8: anti-human MCT1 antibody Ab18 (antibody, human IgG1, kappa, V domains shown)
VH: B1 VH with F27R, Q35G, S99R
VL: B1 VL with N30E
B9: anti-human MCT1 antibody Ab15 (antibody, human IgG1, kappa, V domains shown)
VH: B1 VH with F27R, S99L
VL: B1 VL with N30E
B10: anti-human MCT1 antibody Ab17 (antibody, human IgG1, kappa, V domains shown)
VH: B1 VH with F27R, Y32I, S99R
VL: B1 VL with N30E
B11: anti-human MCT1 antibody Ab16 (antibody, human IgG1, kappa, V domains shown)
VH: B1 VH with V24R, F27R, S99R
VL: B1 VL with N30E
B12: anti-human MCT1 antibody Ab9 (antibody, human IgG1, kappa, V domains shown)
VH: B1 VH with F27R, L34I, S99R
VL: B1 VL with N30E
B13: anti-human MCT1 antibody Ab19 (antibody, human IgG1, kappa, V domains shown)
VH: B1 VH with F27R, S53R, S99R
VL: B1 VL with N30E
B14: anti-human MCT1 antibody Ab14 (antibody, human IgG1, kappa, V domains shown)
VH: B1 VH with F27R, S99R, A115P
VL: B1 VL with N30E

Molecular target: human serum polyclonal antibodies
Experiment: cross-interaction chromatography (CIC), IgG column against blank column

Binder	IgG K' (column retention time ratio)
B1	0.05
B2	0.07
B3	0.07
B4	0.06
B5	0.07
B6	0.08
B7	0.06
B8	0.08
B9	0.09
B10	0.05
B11	0.08
B12	0.07
B13	0.08
B14	0.07

Molecular target: human serum polyclonal antibodies
Experiment: cross-interaction chromatography (CIC), column with human serum polyclonal IgG

Binder	IgG column RT	IgG column peak width
B1	5.07 min	1.5 min
B2	5.33 min	1.63 min
B3	5.29 min	1.46 min
B4	5.27 min	1.44 min
B5	5.34 min	1.55 min
B6	5.38 min	1.79 min
B7	5.33 min	1.57 min
B8	5.35 min	1.64 min
B9	5.27 min	1.55 min
B10	5.19 min	1.36 min
B11	5.4 min	1.89 min
B12	5.28 min	1.46 min
B13	5.41 min	1.94 min
B14	5.29 min	1.51 min
